How the values were obtained:
Test in all cases: purified protein
purified protein [1] = substrate: CC(C)=CCC/C(C)=C\C=O; details: 0.2 mM NADH, 100 mM PBS pH 8.0, 30°C
purified protein [2] = substrate: CC(C)=CCC/C(C)=C/C=O; details: 0.2 mM NADH, 100 mM PBS pH 8.0, 30°C
purified protein [3] = substrate: NC(=O)C1=CN([C@@H]2O[C@H](COP(=O)(O)OP(=O)(O)OC[C@H]3O[C@@H](n4cnc5c(N)ncnc54)[C@H](O)[C@@H]3O)[C@@H](O)[C@H]2O)C=CC1; details: 5 mM (E/Z)-citral, 100 mM PBS pH 8.0, 30°C, varied: cofactor

B1: OYE2p (Saccharomyces cerevisiae S288C) (protein)
chain: PFVKDFKPQALGDTNLFKPIKIGNNELLHRAVIPPLTRMRAQHPGNIPNRDWAVEYYAQRAQRPGTLIITEGTFPSPQSGGYDNAPGIWSEEQIKEWTKIFKAIHENKSFAWVQLWVLGWAAFPDTLARDGLRYDSASDNVYMNAEQEEKAKKANNPQHSITKDEIKQYVKEYVQAAKNSIAAGADGVEIHSANGYLLNQFLDPHSNNRTDEYGGSIENRARFTLEVVDAVVDAIGPEKVGLRLSPYGVFNSMSGGAETGIVAQYAYVLGELERRAKAGKRLAFVHLVEPRVTNPFLTEGEGEYNGGSNKFAYSIWKGPIIRAGNFALHPEVVREEVKDPRTLIGYGRFFISNPDLVDRLEKGLPLNKYDRDTFYKMSAEGYIDYPTYEEALKLGWDKN
Km (purified protein [1]): 310 ± 47 µM
kcat (purified protein [1]): 0.13 ± 0.008 s⁻¹
kcat/Km (purified protein [1]): 421 ± 39 M⁻¹ s⁻¹
Km (purified protein [2]): 120 ± 25 µM
kcat (purified protein [2]): 0.213 ± 0.008 s⁻¹
kcat/Km (purified protein [2]): 1780 ± 305 M⁻¹ s⁻¹
Km (purified protein [3]): 14 ± 4 µM

Source: PMC9049607
